# Assay results published in patent US20230295316A1 (FRED HUTCHINSON CANCER CENTER, published 2023).
# Where a chain is given by its changes, count along the chain named.
# T1: Hs_CD123_6His-Avi (CD123 ECD-His-Avi fusion protein) (human, UniProt P26951 19-303)
# T1 construct: The signal peptide is marked only by bold type, so its limits cannot be read here and were not guessed; also called His-Avi tagged peptide encompassing the ECD of human CD123
# T1 sequence: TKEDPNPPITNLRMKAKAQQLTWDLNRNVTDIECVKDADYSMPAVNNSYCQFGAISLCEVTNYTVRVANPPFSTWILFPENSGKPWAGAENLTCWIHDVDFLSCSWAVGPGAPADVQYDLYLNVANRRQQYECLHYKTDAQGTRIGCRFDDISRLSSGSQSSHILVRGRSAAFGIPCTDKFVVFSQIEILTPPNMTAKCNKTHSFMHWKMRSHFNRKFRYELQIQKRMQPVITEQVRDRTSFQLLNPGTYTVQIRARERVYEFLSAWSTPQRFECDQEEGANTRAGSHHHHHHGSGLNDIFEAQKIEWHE
# B1: 123-ATX1E3, fully human recombinant antibody, human IgG1 framework (antibody)
# heavy: not shown
# light: EIVLMQSPGTLSLSPGERVTLSCRASQTFSSSYLAWYQQKPGQAPRLLIYGASSRATGIPDRFSGSGSGTDFTLTINRLEPEDFAVYYCQQYGRSPFTFGPGTKLDIKRTVAAPSVFIFPPSDEQLKSGTASVVCLLNNFYPREAKVQWKVDNALQSGNSQESVTEQDSKDSTYSLSSTLTLSKADYEKHKVYACEVTHQGLSSPVTKSFNRGEC
# notes: also called 1E3 (human IgG1)
# B2: 123-ATX1E3, fully human recombinant antibody, human IgG4 framework (antibody)
# heavy: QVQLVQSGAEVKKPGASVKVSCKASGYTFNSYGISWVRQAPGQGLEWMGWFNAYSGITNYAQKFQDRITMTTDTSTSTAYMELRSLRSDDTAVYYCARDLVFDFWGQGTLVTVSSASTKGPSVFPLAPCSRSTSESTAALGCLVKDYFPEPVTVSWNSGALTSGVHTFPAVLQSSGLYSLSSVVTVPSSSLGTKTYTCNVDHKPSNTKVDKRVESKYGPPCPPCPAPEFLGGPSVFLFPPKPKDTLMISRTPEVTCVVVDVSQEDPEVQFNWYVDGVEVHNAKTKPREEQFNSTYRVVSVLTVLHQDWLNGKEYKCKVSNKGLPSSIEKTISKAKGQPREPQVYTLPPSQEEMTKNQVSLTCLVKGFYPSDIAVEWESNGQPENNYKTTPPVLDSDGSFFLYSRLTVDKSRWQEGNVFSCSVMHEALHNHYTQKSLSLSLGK
# light: B1 light
# notes: also called 1E3 (human IgG4)
# B3: 123-ATX1D9, fully human recombinant antibody, human IgG1 framework (antibody)
# heavy: not shown
# light: QSALTQPPSASGSPGQSVTISCTGTSSDVGGYNYVSWYQQHPGKAPKIMIYEVNKRPAGVPDRFSGSKSGNTASLTVSGLQAEDEAHYYCNSYTDSNNLIFGGGTKLTVLGQPKANPTVTLFPPSSEELQANKATLVCLISDFYPGAVTVAWKADGSPVKAGVETTKPSKQSNNKYAASSYLSLTPEQWKSHRSYSCQVTHEGSTVEKTVAPTECS
# notes: Lambda light chain; also called 1D9 (human IgG1)
# B4: 123-ATX1D9, fully human recombinant antibody, human IgG4 framework (antibody)
# heavy: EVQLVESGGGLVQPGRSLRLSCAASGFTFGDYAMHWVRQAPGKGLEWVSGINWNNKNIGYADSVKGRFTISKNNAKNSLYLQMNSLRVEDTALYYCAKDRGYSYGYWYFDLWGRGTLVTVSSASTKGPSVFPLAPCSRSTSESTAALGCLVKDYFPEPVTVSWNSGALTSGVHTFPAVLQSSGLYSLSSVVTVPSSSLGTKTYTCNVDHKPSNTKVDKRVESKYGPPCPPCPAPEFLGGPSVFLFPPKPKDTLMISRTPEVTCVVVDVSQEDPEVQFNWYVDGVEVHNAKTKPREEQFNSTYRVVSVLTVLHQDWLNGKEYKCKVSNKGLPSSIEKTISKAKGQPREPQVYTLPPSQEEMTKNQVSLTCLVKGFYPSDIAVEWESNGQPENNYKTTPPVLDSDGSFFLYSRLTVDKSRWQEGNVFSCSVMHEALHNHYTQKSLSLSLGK
# light: B3 light
# notes: Lambda light chain; also called 1D9 (human IgG4)
# B5: 123-5G4 (murine anti-CD123 antibody, IgG2a isotype, Kappa Light Chain) (antibody, V domains shown)
# VH: DVQLQESGPGLVKPSQSLSLTCTVTGYSITSDYVWNWIRQFPGNKLEWMAYISYSGTTSYNPSLSSRISITRDTSSNQFFLQLNSVTSEDTATYYCARGLDYWGQGTSVTVSS
# VL: QIVLTQSPAIMSVSLGERVTMTCTASSSVTSSYFHWYQQKPGSSPKLWIYSTSNLASGVPARFSGSGSGTSYSLTISSMEAEDAATYYCHQYHRSPRTFGGGTKLEIK
# notes: murine IgG2a, kappa
# B6: 123-1H8 (murine anti-CD123 antibody, IgG1 isotype, Kappa Light Chain) (antibody, V domains shown)
# VH: EVKLVESEGGLVQPGSSMKLSCTASGFTFSDYYMAWVRQVPEKGLEWVANIDDEGSSTYYLDSLKSRFIISRDNAKNILYLQMTSLKSEDTATYYCARGTTQTSFFVHWGQGTLVTVSA
# VL: DIVLTQSPASLAVSLGQRATISCRASQSVSSSSYSFMHWYQKKPRQPPKLLIKYASTLEAGVPARFSGSGSGTDFTLNIHPVEEEDTATYYCQHSWEIPYTFGGGTKLEIK
# notes: murine IgG1, kappa
# B7: 123-5C7 (murine anti-CD123 antibody, IgG2b isotype, Kappa Light Chain) (antibody, V domains shown)
# VH: DVQLQESGPGLVKPSQSLSLTCSVTGYSITSSYYWNWIRQFPGNKLEWMGYISYDGSNNYNPSLKNRISITRDTSKTQFFLNLNSVTTEDTATYYCARGDGYYFDYWGQGTTLTVSS
# VL: DFVMSQSPSSLAVSVGEKITINCKSSQSLFFGSTQKNYLAWYQQKPGQSPKLLIFWSSTRESGVPDRFTGSGSGTDFTLSINSVKAEDLAVYYCQQYYNYPWTFGGGTKLEIK
# notes: murine IgG2b, kappa
# B8: 123-13E1 (murine anti-CD123 antibody, IgG2b isotype, Kappa Light Chain) (antibody, V domains shown)
# VH: EVQLQQSGPELVKPGASVKISCKASGYTFTDHYMNWVKQSHGERLEWIGDIIPNNGGSTYSQKFKGKATLTVDKSSSTAYMELRSLTSEDSAVYYCARNGYYWYFDVWGTGTTVTVSS
# VL: DIVLTQSPSSLAMSVGQKVTMSCKSSQSLLNSSNQKNYLAWYQQKPGQSPKLLVYFASTRESGVPDRFTGSGSGTDFTLTISTVQAEDLAFYYCHQHYSIPRTFGGGTKLEIT
# notes: murine IgG2b, kappa
# B9: 123-12A10 (murine anti-CD123 antibody, IgG2b isotype, Kappa Light Chain) (antibody, V domains shown)
# VH: EVQLQQSGPELVKPGASVKISCKTSGYTFTDYYMNWVKQSHGKSLEWIGDIIPNNGGTSYHQKFKGKATLTVDKSSNTAYMELRSLTSEDSAVYYCARYGSSWFFDVWGTGTTVTVSS
# VL: DIVMSQSPSSLAVSVGEKVTMSCKSSQSLLHSSNQKNYLAWYQQKPGQSPKLLIYWASTRESGVPDRFTGSGSGTDFTLTISSVKAEDLAVYYCQQYYSFPRTFGGGTKLEIK
# notes: murine IgG2b, kappa
# B10: 123-ATX1B2 (Human anti-CD123 antibody from ATX-GX mouse, Kappa Light Chain) (antibody, V domains shown)
# VH: QVQLVQSGAEVKKPGASVEVSCKASGYTFTGYYIHWVRQAPGQGLEWMGWINPNSGGTNYAQKFQGRVTMTWDTSISTAFMELSRLRSDDTAVYSCARDRGGPYFDYWGQGTLVIVSS
# VL: DIQMTQSPSSLSASVGDRVTITCQASQDITNYLNWYQQKPGKAPKLQIYDASNLETGVPSRFSGSGSGTDFTFTISSLQPEDIATYYCQQHDDLPLTFGGGTKVEIK
# B11: 123-ATX1F2 (Human anti-CD123 antibody from ATX-GX mouse, Kappa Light Chain) (antibody, V domains shown)
# VH: QVQLVQSGAEVKKPGASVKVSCKVSGYTLTEFSMHWVRQAPGKGLEWMGVFDPEHGATIYAQKFQGRVTMTEDTSTDTAYMDLSYLRSEDTAVYYCATYFDFWSGYSHFDFWGQGTLVTVSS
# VL: DIQMTQSPSSLSASVGDRVTITCRASQGIRNDLGWYQQRPGKAPKRLIYAASSLQSGVPSRFSGSGSGTEFTLAISSLQPEDFATYSCLQHNSYPWTFGQGTKVEIK
# B12: 123-ATX1B7 (Human anti-CD123 antibody from ATX-GX mouse, Kappa Light Chain) (antibody, V domains shown)
# VH: QVQLVQSGAEVKKPGASVKVSCKASGYTFTSFGLTWVRQAPGQGLEWMGWFNAYSGKTYYAPTLQDRVTMTTDPSTSTAYMELMSLTSDDTAIYYCARDLVFDYWGQGTLVTVSS
# VL: EIVLTQSPGTLSLSPGERATLSCRASQSFSDRYLAWYQQKPGQAPRLLIYGTSSRATGIPDRFSGSGSGTDFTLTISRLESEDSAVYYCQQYGRSPFTFGPGTKVDIK
# B13: 123-ATX1E5 (Human anti-CD123 antibody from ATX-GX mouse, Kappa Light Chain) (antibody, V domains shown)
# VH: B12 VH with L34I, T35S, K57N, P74T, T87R
# VL: B12 VL with S53F, E80D, S84F, R94S
# B14: 11F11 reacted with B10 (antibody, V domains shown)
# VH: EVTLVESGGGLEQPGGSLSLSCAASGFTFTDYYMSWVRQPPGKALEWLALIRNKANGYTTEYSASVKGRFTISRDNSQSILYLQMNALRAEDSATYYCARQVRNYYGYEEDALDYWGQGTSVTVSS
# VL: DIVLTQSPASLAVSLGQRATISCRASESLDFYGNSFMHWYQQKSGQPPKLLISRASNLESGIPPRFSGSGSRTDFTLTIDPVEADDVATYYCQQSYEDPYTFGGGTKLEIK
# modifications: B10 on lysine amines, positions not given; B10 (isothiocyantophenethyl-ureido-closo-decaborate(2-)) on lysine amines, positions not given
# notes: also called B10-conjugated 11F11
# B15: 10C4-B10 (B10-conjugated 10C4 anti-CD123 mAb) (antibody, V domains shown)
# VH: QVQLKESGPGLVAPSQNLSITCTVSGFSLTTYDINWIRQPPGKGLEWLGVIWTGGGTNYNSAFMSRLSISKDNSKSQVFLKMNSLQTDDTAMYYCVRGDTYHYALDFWGQGTSVTVSS
# VL: DIVMSQSPSSLAVSAGEKVTMSCKSSQSLLSSGTRKNYLAWYQQKPGQSPKLLIYWASTRESGVPDRFTGSGSGTDFTLTISSVQAEDLAVYYCKQSYILFTFGSGTKLEIK
# modifications: B10 on lysine amines, positions not given; B10 (isothiocyantophenethyl-ureido-closo-decaborate(2-)) on lysine amines, positions not given
# B16: 5G4 reacted with B10 (antibody, V domains shown)
# VH: B5 VH
# VL: B5 VL
# modifications: B10 on lysine amines, positions not given; B10 (isothiocyantophenethyl-ureido-closo-decaborate(2-)) on lysine amines, positions not given
# notes: also called B10-conjugated 5G4
# B17: 1H8 reacted with B10 (antibody, V domains shown)
# VH: B6 VH
# VL: B6 VL
# modifications: B10 on lysine amines, positions not given; B10 (isothiocyantophenethyl-ureido-closo-decaborate(2-)) on lysine amines, positions not given
# notes: also called B10-conjugated 1H8
# Molecular target: T1, Hs_CD123_6His-Avi (CD123 ECD-His-Avi …)
# Test: SPR (Biacore T-100), univalent affinity; antibody captured on the CM4 chip, human CD123 ECD as analyte
# Experimental: FIGS. 21A-21B. Surface plasmon resonance (Biacore T-100) analyses were performed to rigorously/precisely determine univalent binding affinities of recombinant, fully human versions of the anti-human CD123 monoclonal antibodies 1B5, 1D9, and 1E3, using human IgG1 (FIG. 21A) and human IgG4 frameworks (FIG. 21B). For these experiments, a peptide encoding the complete extracellular portion of human CD123 was used, and the antibodies were captured on the biosensor chip (CM4) via a Fc gamma-specific goat anti-human IgG and amine coupling.
Binder,Kd,koff,kon
B1,0.652 nM,6.15e-05 s⁻¹,94400 M⁻¹ s⁻¹
B2,0.792 nM,7.02e-05 s⁻¹,88600 M⁻¹ s⁻¹
B3,0.563 nM,3.68e-05 s⁻¹,65500 M⁻¹ s⁻¹
B4,0.594 nM,4.19e-05 s⁻¹,70600 M⁻¹ s⁻¹

# Molecular target: T2, human interleukin-3 (IL-3) receptor alpha-chain (CD123), on cells (human, UniProt P26951 19-378)
# T2 construct: whole, on cells; also called human CD123
# Test: flow cytometry (APC-A), unmodified mAb + secondary antibody, RS4;11 cells overexpressing human CD123 [CONT.]
# Description: (§1) FIG. 4. Parental CD123-negative human RS4;11 ALL cells and RS4;11 cells engineered to overexpress human CD123 were used for flow cytometric phenotyping of a series of anti-CD123 mAbs (11F11, 5G4, 10C4, 1H8) that were either left unmodified or were reacted with 5, 10, or 15 equivalents of B10. A secondary mAb-only control is also shown.
row,Binder,binding result
1,B5,binds
2,B6,binds

# Molecular target: T2, human interleukin-3 (IL-3) receptor …
# Test: flow cytometry (PE-Cy7-A), mAb + labeled secondary antibody, RS4;11 cells transduced with human CD123
row,Binder,binding result
1,B7,binds
2,B8,binds
3,B9,binds

# Molecular target: T2, human interleukin-3 (IL-3) receptor …
# Test: flow cytometry (PE-A), 2 µg/mL by the legend (hybridoma supernatants by paragraph 203) + labeled secondary antibody, parental MOLM-13 cells against MOLM-13 CD123KO
row,Binder,binding result
1,B10,binds
2,B11,binds
3,B12,binds
4,B13,binds

# Molecular target: T2, human interleukin-3 (IL-3) receptor …
# Test: flow cytometry (APC-A), mAb reacted with 5, 10 or 15 equivalents of B10 + secondary antibody, RS4;11 cells overexpressing human CD123 [CONT.]
# Description: as §1
row,Binder,binding result
1,B14,binds
2,B15,binds
3,B16,binds
4,B17,binds
